Data: publication PMC5794992

Biological target: BraA.Gα1 (Gα subunit of B. rapa), GAL4 DNA-binding domain fusion (Brassica rapa)
Sequence (P18064 other isoform, or with tags, fused parts or gaps): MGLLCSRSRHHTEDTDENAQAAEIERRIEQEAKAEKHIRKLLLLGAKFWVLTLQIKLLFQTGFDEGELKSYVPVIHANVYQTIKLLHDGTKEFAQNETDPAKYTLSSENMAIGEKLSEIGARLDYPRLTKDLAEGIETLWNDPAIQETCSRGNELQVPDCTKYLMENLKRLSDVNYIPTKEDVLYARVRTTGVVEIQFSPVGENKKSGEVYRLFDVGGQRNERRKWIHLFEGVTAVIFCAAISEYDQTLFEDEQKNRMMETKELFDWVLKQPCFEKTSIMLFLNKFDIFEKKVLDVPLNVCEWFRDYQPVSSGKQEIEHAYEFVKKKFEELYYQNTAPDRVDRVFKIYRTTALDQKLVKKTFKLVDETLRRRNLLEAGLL

Row | Km of steady state Pi release (ENZchek) from 1 μM GTP-loaded BraA.Gα1 with 0.1–2.0 μM purified RGS-domain of BraA.RGS2 (His-tagged proteins from E. coli) | Km of steady state Pi release (ENZchek) from 1 μM GTP-loaded BraA.Gα1 with 0.1–2.0 μM purified RGS-domain of BraA.RGS1 (His-tagged proteins from E. coli) | Substance
1 | 0.311 | – | RGS-domain of BraA.RGS2 (C-terminal cytosolic domain containing the RGS-box), GAL4 activation domain fusion (domain or fragment)
2 | – | 0.244 | RGS-domain of BraA.RGS1 (C-terminal cytosolic domain containing the RGS-box), GAL4 activation domain fusion (domain or fragment)
